# Patent publication US7238668B1, “Inhibition of lymphocyte adherence with CS-1-peptides and fragments thereof” (Fred Hutchinson Cancer Research Center, priority 1989, dated 2007)
# Where two headings read alike, the source gives them in different places. Ends that are not written are not given here.
# B1: CS-1 peptide (peptide)
# peptide: DELPQLVTLPHPNLHGPEILDVPST
# notes: Free peptide; also called peptide 344; synthetic CS-1
# Tests used:
# [1] = test system: T lymphocytes (Jurkat or Molt 4 cells); test: T lymphocyte adhesion to plasma fibronectin, tryptic fragments and CS peptides; type: cell-based, human
# Description: Antibodies that would alter cell adhesion to purified plasma fibronectin, tryptic fragments and CS peptides were identified as previously described (Wayner and Carter, 1987). […] The plates were blocked with PBS supplemented with 10 mg/ml heat denatured BSA (HBSA). T lymphocyte or HT1080 cells were labeled with Na2 ^51CrO4 (50 μlCi/ml for 2–4 hr), washed, and 5×10^4 HT1080 or cultured T cells or […] were incubated with hybridoma culture supernatants (1:2 dilution in PBS supplemented with 1 mg/ml heat denatured BSA) or control myeloma cell culture supernatant for 15 minutes at room temperature. The cells were allowed to adhere to the protein-coated surfaces in the presence of the hybridoma supernatants for 15–30 minutes (HT1080) or 2–4 hours (lymphocytes) at 37° C. Non-adherent cells were removed by washing with PBS, and the adherent cells were dissolved in SDS/NaOH and bound ^51Cr-cpm were quantitated in a gamma counter.
# Human plasma fibronectin was a generous gift from Drs. Horowitz and R. Schulman (New York Blood Center, N.Y.). […] Two overlapping peptides spanning the initial 48 residues of the IIICS region of human fibronectin (CS-1 and CS-2) were synthesized and coupled to rabbit IgG as described (Humphries et al., 1986, and Humphries et al., 1987, J. Biol. Chem. 262:6886–6892).
# [2] = test system: Jurkat cells; test: Peptide inhibition of Jurkat cell adhesion to plasma fibronectin (50% inhibition point); type: cell-based, human; settings: read-out: Molar Concentration (mM) required for 50% inhibition of Jurkat cell adhesion to plasma fibronectin; fibronectin 5 ug/ml; 30 min
# Description: For peptide inhibition studies, ^51Cr-labeled test cells were pre-incubated with CS-1 derived peptides at various concentrations for 15 min at room temperature. The test cells were then allowed to attach to fibronectin-coated surfaces in the presence of exogenous test peptides for 30–60 min. The assay then proceeded as described above.
# For these experiments in Table XIII ^51Cr-labeled Jurkat cells (10^5/well) were incubated in the presence of the varying concentrations (starting at 2 mg/ml) of the indicated peptides for 15 min. The Jurkat cells were then allowed to adhere to plasma fibronectin-coated surfaces (5 ug/ml) in the presence of the peptides for 30 min. Adhesion to fibronectin was graphically depicted as cpm bound to the fibronectin surface (Y axis), plotted as a function of molar peptide concentration (X axis).
# [3] = test system: LAD (B) lymphocyte adhesion to HUVE monolayers; test: Endothelial cell adhesion assay, LAD cells on HUVE monolayers; type: cell-based, human; settings: for Adhesion (cpm) Basal: basal HUVE; for Adhesion (cpm) +IL-1β: IL-1β activated HUVE
# Description: (§1) HUVEs were incubated with IL-1 β (1 ng/ml) or in some experiments with TNF α (10 ng/ml) for 6–24 hours. At the end of this incubation the HUVE monolayers were washed and used in the adhesion assay.
# (§2) Human umbilical vein endothelial cells (HUVEs) were cultured in 48 well plates as described (supra). To measure adherence of lymphocytes to HUVE monolayer cultures, lymphocytes were labeled with Na2 ^51CrO4 (50 μCi/ml) for 2–4 hours), washed, and then 10^5 lymphocytes were incubated with HUVE monolayers in the presence or absence of inhibitory antibodies or CS-1 derived peptides. The lymphocytes were allowed to adhere for 30 minutes at 37°. Non-adherent cells were subsequently removed by washing with PBS, and the adherent cells were dissolved in SDS/NaOH. Bound ^51Cr-cpm were quantitated in a gamma counter. In some experiments, endothelial cells were activated prior to the adhesion assay by incubating with IL-1 β (1 ng/ml) or […] (10 ng/ml) for 6–24 hours in defined CS-100 media (Cell Systems, Seattle, Wash.).
# [4] = test system: Jurkat (T) lymphocyte adhesion to HUVE monolayers; test: Endothelial cell adhesion assay, Jurkat cells on HUVE monolayers; type: cell-based, human; settings: for Adhesion (cpm) Basal: basal HUVE; for Adhesion (cpm) +IL-1β: IL-1β activated HUVE
# Description: as §1, §2
# [5] = test system: Ramos (B) lymphocyte adhesion to HUVE monolayers; test: Endothelial cell adhesion assay, Ramos cells on HUVE monolayers; type: cell-based, human; settings: for Adhesion (cpm) Basal: basal HUVE; for Adhesion (cpm) +IL-1β: IL-1β activated HUVE
# Description: as §1, §2
# [6] = biological target: T1, integrin receptor α4β1 (human, UniProt P13612 34-1032; P05556 21-798); test: cell-based or functional assay
# [7] = test system: Jurkat cells; test: Jurkat cell adhesion to surfaces coated with peptide-rsa conjugates; type: cell-based, human
# Description: ^51Cr-labeled Jurkat cells ([…]) were incubated on surfaces coated with varying concentrations of peptide-rsa conjugates starting at 50 ug/ml (w/v) fragment or peptide (based on peptide not peptide-conjugate weight). […] (No adhesion=no measurable adhesion above negative controls.)
# Adhesion of various hematopoetic cell lines to CS-1 (open bars; FIG. 12) or LDV minimal peptide-coated surfaces (cross-hatched bars; FIG. 12) was tested as follows: Jurkat (T lymphoblastoid), A375 (melanoma), U937 (monocytic), Ramos (B lymphoblastoid), and ST-1 (EBV transformed B lymphoblastoid) cells were allowed to adhere to CS-1-rsa or LDVPST-rsa (5 ug/ml peptide) coated surfaces for 30 min at 37° C. At the end of this time the non-adherent cells were washed off and the adherent cells were solubilized in NaOH/SDS and quantitated in a gamma counter. The results are expressed as bound counts per minute.
# [8] = biological target: integrin β1 subunit (human) (UniProt P05556); test: cell-based or functional assay
# [9] = biological target: T1, integrin receptor α4β1; test: cell-based or functional assay; remark: listed apart in the source
# [10] = biological target: T1, integrin receptor α4β1; test: cell-based or functional assay; remark: listed apart in the source
# [11] = biological target: integrin α5β1 (human, UniProt P08648 42-1049; P05556 21-798); test: cell-based or functional assay
# [12] = biological target: T1, integrin receptor α4β1; test: soluble peptide against 51Cr-Jurkat adhesion to plasma fibronectin (5 ug/ml coat); 50% inhibition point read from plot
# Description: For these experiments in Table XIII ^51Cr-labeled Jurkat cells (10^5/well) were incubated in the presence of the varying concentrations (starting at 2 mg/ml) of the indicated peptides for 15 min.
# integrin α5β1, sequence (P08648 42-1049, chain 1 of 2): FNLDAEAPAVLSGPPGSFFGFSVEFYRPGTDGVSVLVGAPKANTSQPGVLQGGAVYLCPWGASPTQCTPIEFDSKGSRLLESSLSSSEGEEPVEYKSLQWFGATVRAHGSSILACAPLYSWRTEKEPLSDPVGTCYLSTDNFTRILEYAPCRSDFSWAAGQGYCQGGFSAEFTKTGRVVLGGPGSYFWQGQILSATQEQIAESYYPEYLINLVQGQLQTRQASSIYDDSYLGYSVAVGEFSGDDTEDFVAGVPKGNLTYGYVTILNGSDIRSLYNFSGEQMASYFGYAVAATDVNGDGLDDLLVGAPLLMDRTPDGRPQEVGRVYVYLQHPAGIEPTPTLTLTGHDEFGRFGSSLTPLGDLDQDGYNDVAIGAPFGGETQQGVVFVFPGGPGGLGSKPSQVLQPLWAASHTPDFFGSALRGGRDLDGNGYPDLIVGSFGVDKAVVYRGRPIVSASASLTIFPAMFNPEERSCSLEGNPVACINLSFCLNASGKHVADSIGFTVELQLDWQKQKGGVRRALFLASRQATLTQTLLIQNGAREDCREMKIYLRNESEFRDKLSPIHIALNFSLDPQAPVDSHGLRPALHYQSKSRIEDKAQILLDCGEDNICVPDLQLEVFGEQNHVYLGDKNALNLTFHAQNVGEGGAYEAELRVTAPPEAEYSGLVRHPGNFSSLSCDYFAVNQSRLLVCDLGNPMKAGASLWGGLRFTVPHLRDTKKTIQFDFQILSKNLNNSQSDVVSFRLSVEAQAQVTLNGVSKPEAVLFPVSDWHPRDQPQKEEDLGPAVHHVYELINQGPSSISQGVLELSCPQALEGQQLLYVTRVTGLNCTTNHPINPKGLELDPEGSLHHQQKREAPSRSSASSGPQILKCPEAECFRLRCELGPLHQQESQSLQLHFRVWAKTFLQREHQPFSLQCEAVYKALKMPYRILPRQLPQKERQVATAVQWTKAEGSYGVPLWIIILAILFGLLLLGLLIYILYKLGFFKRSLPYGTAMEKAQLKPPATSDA
# integrin α5β1, sequence (P05556 21-798, chain 2 of 2): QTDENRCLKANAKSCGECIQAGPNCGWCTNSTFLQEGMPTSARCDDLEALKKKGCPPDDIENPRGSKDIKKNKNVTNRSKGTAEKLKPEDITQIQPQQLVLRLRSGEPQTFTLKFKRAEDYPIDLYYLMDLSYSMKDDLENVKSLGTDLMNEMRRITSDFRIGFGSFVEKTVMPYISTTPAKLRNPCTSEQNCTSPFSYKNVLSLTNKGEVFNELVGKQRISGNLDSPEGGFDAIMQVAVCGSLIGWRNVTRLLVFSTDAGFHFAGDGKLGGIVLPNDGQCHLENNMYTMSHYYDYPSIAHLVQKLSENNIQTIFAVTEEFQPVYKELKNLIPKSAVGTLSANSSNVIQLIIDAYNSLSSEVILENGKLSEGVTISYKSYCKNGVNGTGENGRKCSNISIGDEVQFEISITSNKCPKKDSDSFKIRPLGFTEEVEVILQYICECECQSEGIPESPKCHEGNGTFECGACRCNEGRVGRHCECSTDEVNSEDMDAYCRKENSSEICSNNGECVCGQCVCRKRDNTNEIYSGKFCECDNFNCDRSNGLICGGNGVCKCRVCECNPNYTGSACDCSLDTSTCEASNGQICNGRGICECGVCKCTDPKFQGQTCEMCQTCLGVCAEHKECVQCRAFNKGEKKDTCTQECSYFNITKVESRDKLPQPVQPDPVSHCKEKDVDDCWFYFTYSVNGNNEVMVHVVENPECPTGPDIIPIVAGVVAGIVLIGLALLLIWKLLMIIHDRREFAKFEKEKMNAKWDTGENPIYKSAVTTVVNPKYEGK
# T1 sequence (P13612 34-1032, form in doubt, chain 1 of 2): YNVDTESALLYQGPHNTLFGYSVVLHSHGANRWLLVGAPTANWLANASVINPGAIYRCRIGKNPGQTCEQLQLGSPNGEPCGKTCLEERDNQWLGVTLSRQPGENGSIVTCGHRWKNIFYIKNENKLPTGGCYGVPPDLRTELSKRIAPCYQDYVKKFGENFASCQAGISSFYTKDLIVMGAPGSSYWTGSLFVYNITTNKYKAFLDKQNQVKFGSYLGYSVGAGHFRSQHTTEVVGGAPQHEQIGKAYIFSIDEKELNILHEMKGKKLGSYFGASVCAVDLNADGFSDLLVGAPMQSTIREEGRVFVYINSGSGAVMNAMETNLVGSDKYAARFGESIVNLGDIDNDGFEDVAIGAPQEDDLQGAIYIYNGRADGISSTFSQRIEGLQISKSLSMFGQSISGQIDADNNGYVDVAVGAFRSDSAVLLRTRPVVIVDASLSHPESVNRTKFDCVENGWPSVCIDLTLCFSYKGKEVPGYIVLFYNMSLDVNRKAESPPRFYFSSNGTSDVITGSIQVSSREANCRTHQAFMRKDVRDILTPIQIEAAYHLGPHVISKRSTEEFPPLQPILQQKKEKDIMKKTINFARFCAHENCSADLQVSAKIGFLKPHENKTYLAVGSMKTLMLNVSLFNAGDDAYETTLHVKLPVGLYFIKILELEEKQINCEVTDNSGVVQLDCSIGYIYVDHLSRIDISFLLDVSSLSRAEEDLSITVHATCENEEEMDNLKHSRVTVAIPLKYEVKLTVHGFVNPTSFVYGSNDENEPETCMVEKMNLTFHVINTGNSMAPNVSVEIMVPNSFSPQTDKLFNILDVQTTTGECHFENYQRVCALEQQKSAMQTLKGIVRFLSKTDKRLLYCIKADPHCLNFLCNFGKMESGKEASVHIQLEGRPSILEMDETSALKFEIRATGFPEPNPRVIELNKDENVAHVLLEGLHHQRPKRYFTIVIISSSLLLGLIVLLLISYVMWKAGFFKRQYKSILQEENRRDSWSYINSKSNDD
# T1 sequence (P05556 21-798, form in doubt, chain 2 of 2): as the sequence (P05556 21-798, chain 2 of 2) above
# integrin β1 subunit (human), sequence (P05556 21-798): as the sequence (P05556 21-798, chain 2 of 2) above
molecule,measurement,setting,value
"CS-1 (rabbit IgG conjugate): CS-1 peptide coupled to rabbit IgG (DELPQLVTLPHPNLHGPEILDVPST; also: coupled to rabbit IgG, site not given here)",T lymphocyte attachment to peptide (rabbit IgG conjugate)-coated plastic surfaces,[1],recognize and attach
"CS-2 (rabbit IgG conjugate): CS-2 peptide of the IIICS region coupled to rabbit IgG (PSTVQKTPFVTHPGYDTGNGIQLPGT; also: coupled to rabbit IgG, site not given here)",T lymphocyte attachment to peptide (rabbit IgG conjugate)-coated plastic surfaces,[1],do not attach
"DELPQLVTLPHPN [Peptide A13, N-terminal peptide of CS-1]",IC50,[2],> 1 mM
"DELPQLVTLPHPNLHGPEILDVPST [Peptide 344, synthetic CS-1 peptide of the fibronectin IIICS region]",Adhesion (cpm) Basal,"[3]; peptides, Table X",17500 cpm
same,Adhesion (cpm) Basal,"[4]; peptides, Table X",29568 cpm
same,Adhesion (cpm) Basal,"[5]; peptides, Table X",1660 cpm
LDVPST [Peptide 351],Adhesion (cpm) +IL-1β,"[3]; Table XI, no peptide 71408",92792 cpm
same,Adhesion (cpm) Basal,"[3]; Table XI, no peptide 44860",39700 cpm
same,Adhesion (cpm) +IL-1β,"[4]; Table XI, no peptide 314848",326260 cpm
same,Adhesion (cpm) Basal,"[4]; Table XI, no peptide 161092",166948 cpm
same,IC50,[2],> 1.6 mM
same,Adhesion (cpm) +IL-1β,"[5]; Table XI, no peptide 12936",15092 cpm
same,Adhesion (cpm) Basal,"[5]; Table XI, no peptide 2724",3532 cpm
LDVPST peptide,"Adhesion (cpm), Jurkat (T) on HUVE, +IL-1β; no peptide 314848",[6],326000 cpm
same,"Adhesion (cpm), Jurkat (T) on HUVE, Basal; no peptide 161092",[6],167000 cpm
same,"Adhesion (cpm), LAD (B) on HUVE, +IL-1β; no peptide 71408",[6],92800 cpm
same,"Adhesion (cpm), LAD (B) on HUVE, Basal; no peptide 44860",[6],39700 cpm
same,"Adhesion (cpm), Ramos (B) on HUVE, +IL-1β; no peptide 12936",[6],15100 cpm
same,"Adhesion (cpm), Ramos (B) on HUVE, Basal; no peptide 2724",[6],3530 cpm
VPST [Peptide 350],Adhesion (cpm) +IL-1β,"[3]; Table XI, no peptide 71408",98860 cpm
same,Adhesion (cpm) +IL-1β,"[3]; peptides, Table X",42728 cpm
same,Adhesion (cpm) Basal,"[3]; Table XI, no peptide 44860",38176 cpm
same,Adhesion (cpm) +IL-1β,"[4]; Table XI, no peptide 314848",322208 cpm
same,Adhesion (cpm) +IL-1β,"[4]; peptides, Table X",127544 cpm
same,Adhesion (cpm) Basal,"[4]; Table XI, no peptide 161092",203716 cpm
same,IC50,[2],> 2.5 mM
same,Adhesion (cpm) +IL-1β,"[5]; Table XI, no peptide 12936",15320 cpm
same,Adhesion (cpm) +IL-1β,"[5]; peptides, Table X",4568 cpm
same,Adhesion (cpm) Basal,"[5]; Table XI, no peptide 2724",4168 cpm
VPST-rsa: VPST conjugated to rabbit serum albumin (also: conjugated to rabbit serum albumin),Induction of stable cell adhesion,"[7]; FIGS. 13-15, Jurkat, U937 and HUT 78 cells",relatively inactive in inducing stable cell adhesion
leu-asp-val (Leu-Asp-Val; not fully specified; printed as leu-asp-val) [LDV],IC50,[2],> 2.7 mM
monoclonal antibody 8A2,"concentration of 8A2 able to stimulate increased avidity of a low avidity α4β1 receptor complex for fibronectin, CS-1, or LDV minimal peptides",[8],0.1 µg/mL
monoclonal antibody P4C10,"Adhesion (cpm), Jurkat (T) on HUVE monolayers, +IL-1β; SP2 control 372159",[8],230000 cpm
same,"Adhesion (cpm), Jurkat (T) on HUVE monolayers, Basal; SP2 control 83924",[8],36900 cpm
same,"Adhesion (cpm), LAD (B) on HUVE monolayers, +IL-1β; SP2 control 104672",[8],52600 cpm
same,"Adhesion (cpm), LAD (B) on HUVE monolayers, Basal; SP2 control 19542",[8],6360 cpm
same,"Adhesion (cpm), Ramos (B) on HUVE monolayers, +IL-1β; SP2 control 12157",[8],3150 cpm
same,"Adhesion (cpm), Ramos (B) on HUVE monolayers, Basal; SP2 control 972",[8],604 cpm
rsa-A13: A13 peptide conjugated to rabbit serum albumin (DELPQLVTLPHPN; also: conjugated to rabbit serum albumin),Molar Concentration (nM) required for 50% adhesion of Jurkat cells,"[7]; peptide-rsa conjugate coated surfaces, 50% of total input cpm",No Adhesion
rsa-LDV: LDV conjugated to rabbit serum albumin (Leu-Asp-Val; also: conjugated to rabbit serum albumin),EC50,"[7]; peptide-rsa conjugate coated surfaces, 50% of total input cpm, read-out: Molar Concentration (nM) required for 50% adhesion of Jurkat cells",> 2000 nM
VPST [VPST peptide],"Adhesion (cpm), Jurkat (T) on HUVE, +IL-1β; unrelated peptide 293(A) 129864",[9],128000 cpm
same,"Adhesion (cpm), LAD (B) on HUVE, +IL-1β; unrelated peptide 293A 74096",[9],42700 cpm
same,"Adhesion (cpm), Ramos (B) on HUVE, +IL-1β; unrelated peptide 293A 11132",[9],4570 cpm
same,"Adhesion (cpm), Jurkat (T) on HUVE, +IL-1β; no peptide 314848",[10],322000 cpm
same,"Adhesion (cpm), Jurkat (T) on HUVE, Basal; no peptide 161092",[10],204000 cpm
same,"Adhesion (cpm), LAD (B) on HUVE, +IL-1β; no peptide 71408",[10],98900 cpm
same,"Adhesion (cpm), LAD (B) on HUVE, Basal; no peptide 44860",[10],38200 cpm
same,"Adhesion (cpm), Ramos (B) on HUVE, +IL-1β; no peptide 12936",[10],15300 cpm
same,"Adhesion (cpm), Ramos (B) on HUVE, Basal; no peptide 2724",[10],4170 cpm
RGDS [RGDS peptide],"Adhesion (cpm), Jurkat (T) on HUVE, +IL-1β; no peptide 314848",[11],358000 cpm
same,"Adhesion (cpm), Jurkat (T) on HUVE, Basal; no peptide 161092",[11],299000 cpm
same,"Adhesion (cpm), LAD (B) on HUVE, +IL-1β; no peptide 71408",[11],102000 cpm
same,"Adhesion (cpm), LAD (B) on HUVE, Basal; no peptide 44860",[11],70700 cpm
same,"Adhesion (cpm), Ramos (B) on HUVE, +IL-1β; no peptide 12936",[11],28100 cpm
same,"Adhesion (cpm), Ramos (B) on HUVE, Basal; no peptide 2724",[11],16900 cpm
EILDV [EILDV peptide],IC50,[12],660 µM
LHGPEILDVPST (also called CS-1-B12) [B12 peptide],IC50,[12],400 µM
GPEILDVPST (also called peptide 354) [GPEILDVPST peptide],"Adhesion (cpm), Jurkat (T) on HUVE, +IL-1β; unrelated peptide 293(A) 129864",[9],89700 cpm
same,"Adhesion (cpm), LAD (B) on HUVE, +IL-1β; unrelated peptide 293A 74096",[9],27200 cpm
same,"Adhesion (cpm), Ramos (B) on HUVE, +IL-1β; unrelated peptide 293A 11132",[9],2260 cpm
same,IC50,[12],450 µM
B1,"Adhesion (cpm), Jurkat (T) on HUVE, +IL-1β; unrelated peptide 293(A) 129864",[9],75800 cpm
same,"Adhesion (cpm), LAD (B) on HUVE, +IL-1β; unrelated peptide 293A 74096",[9],26200 cpm
same,"Adhesion (cpm), Ramos (B) on HUVE, +IL-1β; unrelated peptide 293A 11132",[9],2830 cpm
same,IC50,[12],180 µM
same,"Adhesion (cpm), Jurkat (T) on HUVE, +IL-1β; no peptide 314848",[10],249000 cpm
same,"Adhesion (cpm), Jurkat (T) on HUVE, Basal; no peptide 161092",[10],82400 cpm
same,"Adhesion (cpm), LAD (B) on HUVE, +IL-1β; no peptide 71408",[10],51600 cpm
same,"Adhesion (cpm), LAD (B) on HUVE, Basal; no peptide 44860",[10],23000 cpm
same,"Adhesion (cpm), Ramos (B) on HUVE, +IL-1β; no peptide 12936",[10],5160 cpm
same,"Adhesion (cpm), Ramos (B) on HUVE, Basal; no peptide 2724",[10],1840 cpm
